In patent US20260117204A1, “STABILIZER FOR URATE OXIDASE AND PEGYLATED CONJUGATE THEREOF, AND PHARMACEUTICAL USE OF STABILIZER” (Hangzhou Grand Biologic Pharmaceutical Inc., priority 2023, published 2026):

Columns and labels:
[1] = Stability of S1 and S2 urate oxidase with/without xanthine at 37° C.: SEC detection of high and low molecular proteins; type: physicochemical; details: for High molecular weight % / Low molecular weight % / Main peak %: storage 37° C. ± 2° C.
Procedure: SEC, 7.8×300 mm chromatographic column or equivalent column was selected. 0.05 mol/L Na2HPO4—NaH2PO4, 0.3 mol/L NaCl, pH 7.0 was used as the mobile phase. The flow rate of HPLC was set to be 0.5 ml/min, and the detection wavelength to 280 nm. Isocratic elution was performed for 35 min, and the injection volume was 10 μl.
(§1) In this example of the present disclosure, xanthine was added to the S1 and S2 samples at a molar ratio of 26 times (xanthine:urate oxidase). The samples were packaged and placed at 37° C. for stability evaluation at days 0, 1.5, 6, and 16. The evaluation indicators include the content of high and low molecular proteins and enzyme specific activity.

[2] = Stability effect of xanthine on urate oxidase from Micrococcus at 2° C. to 8° C.: SEC; type: physicochemical; details: for High molecular weight % / Low molecular weight % / Main peak area / Main peak ratio % / Total peak area: SEC
Procedure: SEC, 7.8×300 mm chromatographic column or equivalent column was selected. 0.05 mol/L Na2HPO4—NaH2PO4, 0.3 mol/L NaCl, pH 7.0 was used as the mobile phase. The flow rate of HPLC was set to be 0.5 ml/min, and the detection wavelength to 280 nm. Isocratic elution was performed for 35 min, and the injection volume was 10 μl. From the SEC results of the stability test at 2° C. to 8° C. in Table 3, it can be seen that the total peak area of the group with small molecules added on day 15 is larger and the main peak ratio thereof is higher.

[3] = Description: As the amount of xanthine added increases, the pH of the solution needs to be further increased to dissolve xanthine. However, high pH conditions will cause protein denaturation. […] The stability change trend of PEGylated urate oxidase tetramer was detected by the detection method of high and low molecular proteins of PEGylated urate oxidase.
The situation where the molar ratio of xanthine to PEGylated urate oxidase was higher than 26:1 was studied.

[4] = Effect of xanthine on the activity of PEGylated urate oxidase (UV 293 nm); type: biochemical; details: xanthine 0.075 to 1.2 μg/ml
Procedure: The method used for determining the activity of urate oxidase and PEGylated urate oxidase was as follows. […] Therefore, the UV spectrophotometer detection wavelength was 293 nm. The buffer solution was used as a blank control, and the absorption zero point was calibrated. In the quartz cuvette, 2.95 ml of substrate reaction solution was added followed by 50 μl of the test solution, mixed immediately, and the light absorption value at 293 nm was measured. According to C=A/εL (A being the absorbance value of a specific concentration of uric acid at 293 nm, εbeing the molar extinction coefficient of uric acid, L being the light path of the cuvette, and C being the molar concentration of uric acid), the degradation concentration of uric acid and then the enzyme activity were calculated. Definition of the activity of urate oxidase and PEGylated urate oxidase: at the optimal reaction temperature of 37° C. and the optimal reaction pH of 9.5, the amount of enzyme required to convert […] uric acid into allantoin per minute being defined as one activity unit (U). […] The PEGylated urate oxidase solution was mixed with different amounts of xanthine at a molar ratio of 0.05 mg/ml PEGylated urate oxidase to xanthine of 1:0, 1:3, 1:11, and 1:44, and then the activity of urate oxidase and polyethylene glycol-modified urate oxidase was determined according to the above-mentioned detection method.

[5] = Stability of S1 and S2 urate oxidase with/without xanthine at 37° C.: enzyme specific activity (uric acid absorbance at 293 nm); type: biochemical; details: storage 37° C. ± 2° C.
Procedure: (§2) The method used for determining the activity of urate oxidase and PEGylated urate oxidase was as follows. […] Therefore, the UV spectrophotometer detection wavelength was 293 nm. The buffer solution was used as a blank control, and the absorption zero point was calibrated. In the quartz cuvette, 2.95 ml of substrate reaction solution was added followed by 50 μl of the test solution, mixed immediately, and the light absorption value at 293 nm was measured. According to C=A/εL (A being the absorbance value of a specific concentration of uric acid at 293 nm, εbeing the molar extinction coefficient of uric acid, L being the light path of the cuvette, and C being the molar concentration of uric acid), the degradation concentration of uric acid and then the enzyme activity were calculated.
(§3) Definition of the activity of urate oxidase and PEGylated urate oxidase: at the optimal reaction temperature of 37° C. and the optimal reaction pH of 9.5, the amount of enzyme required to convert […] uric acid into allantoin per minute being defined as one activity unit (U).
as §1

[6] = Stability effect of xanthine on urate oxidase from Micrococcus at 2° C. to 8° C.: enzyme activity; type: biochemical; details: storage 2° C. to 8° C., 15 d
Procedure: as §2, §3

[7] = immediate detection after process preparation

## O=c1[nH]c(=O)c2[nH]cnc2[nH]1 [xanthine]
[1]; 26 times molar ratio, 37° C.
  effect of xanthine on the product stability of commercially available products and PHC: significantly improve the product stability
[2]; 26 times xanthine, 2° C. to 8° C., day 15, text
  effect of xanthine on the stability of the enzyme derived from Micrococcus: improve the stability of the enzyme derived from Micrococcus to a certain extent
[3]
  solubility of xanthine: good solubility
[4]
  effect of the addition of xanthine on the activity of PEGylated urate oxidase: no effect

B1: S1: Commercially available unmodified urate oxidase from Aspergillus flavus (SEQ ID NO: 8) (protein)
chain: SAVKAARYGKDNVRVYKVHKDEKTGVQTVYEMTVCVLLEGEIETSYTKADNSVIVATDSIKNTIYITAKQNPVTPPELFGSILGTHFIEKYNHIHAAHVNIVCHRWTRMDIDGKPHPHSFIRDSEEKRNVQVDVVEGKGIDIKSSLSGLTVLKSTNSQFWGFLRDEYTTLKETWDRILSTDVDATWQWKNFSGLQEVRSHVPKFDATWATAREVTLKTFAEDNSASVQATMYKMAEQILARQQLIETVEYSLPNKHYFEIDLSWHKGLQNTGKNAEVFAPQSDPNGLIKCTVGRSSLKSKL
[1]; 0 d
  High molecular weight %: 0.3%
  Low molecular weight %: 1%
  Main peak %: 98.8%
[1]; 1.5 d
  High molecular weight %: 0.2%
  Low molecular weight %: 5.6%
  Main peak %: 94.2%
[1]; 6 d
  High molecular weight %: 7.3%
  Low molecular weight %: 17.7%
  Main peak %: 75%
[1]; 16 d
  High molecular weight %: 17.2%
  Low molecular weight %: 51.7%
  Main peak %: 31%
[5]; 0 d
  Enzyme specific activity U/mg: 15.3 U/mg
[5]; 1.5 d
  Enzyme specific activity U/mg: 12.6 U/mg
[5]; 6 d
  Enzyme specific activity U/mg: 8.5 U/mg
[5]; 16 d
  Enzyme specific activity U/mg: 3 U/mg

B2: urate oxidase from Micrococcus: Homemade recombinant urate oxidase from wild-type Micrococcus (SEQ ID NO: 9), not PEG modified (protein)
chain: MTNIILGKNQYGKAEVRLVKVTRNTCRHEIQDLNVTSQLRGDFEAAHTAGDNAHVVATDTQKNTVYAFARDGFATTEEFLLRLGKHFTEGFDWVTGGRWAAQQFFWDRINDHDHAFSRNKSEVRTAVLEISGSEQAIVAGIEGLTVLKSTGSEFHGFPRDKYTTLPETEDRILATDVSARWRYNTVEVDFDAVYADVRGLLLKAFAETHSLALQQTMYEMGRAVIETHPEIDEIKMSLPNKHHFLVDLSPFGQDNPNEVFYAADRPYGLIEATIQREGCRADHPIWSN
[2]; [7]
  High molecular weight %: 40.01%
  Low molecular weight %: 2.34%
  Main peak area: 3,986
  Main peak ratio %: 57.65%
  Total peak area: 6914.90
[2]; storage 2° C. to 8° C., 15 d
  High molecular weight %: 74.58%
  Low molecular weight %: 9.11%
  Main peak area: 814
  Main peak ratio %: 16.31%
  Total peak area: 4993.05
[6]
  Enzyme activity U/mg: 3.58 U/mg

B3: S2: Homemade recombinant pig-baboon chimeric urate oxidase (SEQ ID NO: 1), not PEG modified (protein)
chain: TYKKNDEVEFVRTGYGKDMIKVLHIQRDGKYHSIKEVATTVQLTLSSKKDYLHGDNSDVIPTDTIKNTVNVLAKFKGIKSIETFAVTICEHFLSSFKHVIRAQVYVEEVPWKRFEKNGVKHVHAFIYTPTGTHFCEVEQIRNGPPVIHSGIKDLKVLKTTQSGFEGFIKDQFTTLPEVKDRCFATQVYCKWRYHQGRDVDFEATWDTVRSIVLQKFAGPYDKGEYSPSVQKTLYDIQVLTLGQVPEIEDMEISLPNIHYLNIDMSKMGLINKEEVLLPLDNPYGKITGTVKRKLSSRL
[1]; 0 d
  High molecular weight %: 0.7%
  Low molecular weight %: 0.3%
  Main peak %: 99%
[1]; 1.5 d
  High molecular weight %: 54.5%
  Low molecular weight %: 0.2%
  Main peak %: 45.3%
[1]; 6 d
  High molecular weight %: 75.1%
  Low molecular weight %: 0.5%
  Main peak %: 24.4%
[1]; 16 d
  High molecular weight %: 85.1%
  Low molecular weight %: 5%
  Main peak %: 9.9%
[5]; 0 d
  Enzyme specific activity U/mg: 11.3 U/mg
[5]; 1.5 d
  Enzyme specific activity U/mg: 5.2 U/mg
[5]; 6 d
  Enzyme specific activity U/mg: 3.2 U/mg
[5]; 16 d
  Enzyme specific activity U/mg: 1.2 U/mg
